Source: US20240317834A1, “COMPOSITIONS AND METHODS FOR NEUROLOGICAL DISEASES” (CODA BIOTHERAPEUTICS, INC., priority 2020, published 2024)
“Also recorded” adds a separate entry of the source.

Key:
Format in all cases: cell-based
[1] = tested on: HEK293 cells; test: Whole cell manual patch clamp electrophysiology, ligand-induced currents and EC50 in HEK293 cells
Experimental: Using whole cell manual patch clamp electrophysiology in HEK293 cells, rat DRG neurons and rat hippocampal neurons, the EC50 of the various engineered receptors disclosed herein to Ach and non-native ligands was measured using the Hill equation with peak current measurements from escalating doses of ligand. The rheobase shift was also measured in rat DRG neurons, which reflects the efficacy of the receptors. To calculate the rheobase, first, the amount of current that can produce an action potential was determined. Then the ligand was added, followed by a step wise increase in the current injected up to 700 pA.
For manual patch clamp experiments, Cells plated on coverslips were visualized at 10× and 40× on an inverted fluorescence microscope (Olympus). Recordings were made with an Axopatch 200B amplifier and Digidata 1550B (Molecular Devices) at RT using 3-6 MOhm glass patch electrodes (Sutter, BF150-86-10). Unless otherwise stated, recordings were made in extracellular solution (ECS) containing: 140 mM sodium chloride, 4 mM potassium chloride, 1 mM magnesium chloride, 2 mM calcium chloride, 10 mM HEPES, and 10 mM D-(+)-glucose (pH=7.3 with sodium hydroxide, osmolarity=305−315 mOsm). […] Traces were either analyzed in Clampfit (Molecular Devices) or using custom Python code. […]
For dose-response, ligand-induced currents were recorded in voltage clamp mode. […]

[2] = tested on: rat DRG neurons; test: Rheobase shift and evoked action potentials in rat DRG neurons (current clamp)
Method in brief: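 Rat DRG neurons expressing engineered receptors, whole-cell current clamp at RT. ECS at pH 7.3; K-gluconate internal at pH 7.2. 500 ms steps from −200 to 700 pA with and without ligand. Rheobase taken as the smallest depolarising step that fires an action potential; input resistance from negative steps.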

[3] = tested on: HEK293T cells; test: High throughput electrophysiology (IonFlux automated patch clamp), EC50 of engineered receptors to ligands
Experimental: To confirm the EC50s determined by plate reader as well as develop a better understanding of maximum current flow, the engineered receptors were subjected to high throughput electrophysiology system, as described below. For HEK293T studies, cDNAs encoding ion channels were cloned into pcDNA3.1 using standard recombination techniques. HEK293T cells from Clontech (Lenti-X™ 293T Cell Line) were cultured in DMEM supplemented with 10% FBS and 1% Pen/Strep to 40-50% confluence using standard cell culture protocols, transfected with ion channel plasmids at a concentration of 18 μg per 15 cm dish using Fugene 6, and grown for an additional 24 hours. Cells were then assayed on an electrophysiological system (IonFluxHT and/or Mercury, Fluxion Biosciences) in which dose-response relationships may be assessed through a microfluidics-based platform for establishing whole cell configurations. Ensemble plates were primed with extracellular buffer (140 mM NaCl, 5 mM KCl, 2 mM CaCl2), 1 mM MgCl2, 10 mM HEPES, and 10 mM glucose, pH 7.2 with NaOH, mOsm 310), intracellular buffer (145 mM CsCl, 2 mM CaCl2), 2 mM MgCl2, 10 mM HEPES, and 10 mM EGTA, pH 7.2 with CsOH, mOsm 305), as adapted from Lynagh and Lynch, and test compounds (stocks prepared fresh) diluted in extracellular buffer. Cells were then released from the plate with Accutase, centrifuged, resuspended in extracellular buffer, and loaded into Ensemble plates. Cells were then subjected to a standard protocol for priming, trapping, breaking, and establishing whole cell configuration, with cells held at −60 mV throughout the recording. After recording baseline, progressive doses of test compounds were applied using the IonFlux software to assess dose response relationships. Data were then analyzed off-line using custom Python scripts to convert data to .csv format, re-plot traces, and apply QC measurements to reject unstable recordings (i.e. thresholding based on access resistance and/or standard deviation in baseline, as well as artifact rejection). Peak currents were then calculated, and population data were fit using a 4-parameter logistic equation as described by the Hill Equation. Currents were measured on an automated patch clamp system (Fluxion Biosciences) following 1 second addition of drug and the EC50 values calculated are tabulated below in Table 22 below and Table 21 above (in Example 2).

B1: CODA806: engineered chimeric LGIC receptor, Y115D, L131Q in SEQ ID NO: 33 (protein)
chain: MRCSPGGVWLALAASLLHVSLQGEFQRKLYKELVKNYNPLERPVANDSQPLTVYFSLSLLQIMDVDEKNQVLTTNIWLQMSWTDHYLQWNVSEYPGVKTVRFPDGQIWKPDILLDNSADERFDATFHTNVQVNSSGHCQYLPPGIFKSSCPMDLKNFPMDVQTCKLKFGSWSYGGWSLDLQMQEADISGYIPNGEWDLVGIPGKRSERFYECCKEPYPDVTFTVTMRRRMGYYLIQMYIPSLLIVILSWISFWINMDAAPARVGLGITTVLTMTTQSSGSRASLPKVSYVKAIDIWMAVCLLFVFSALLEYAAVNFVSRQHKELLRFRRKRRHHKSPMLNLFQEDEAGEGRFNFSAYGMGPACLQAKDGISVKGANNSNTTNPPPAPSKSPEEMRKLFIQRAKKIDKISRIGFPMAFLIFNMFYWIIYKIVRREDVHNQ
modifications: synthetic sequence of chimeric LGIC
[1]
  sensitivity to RG-3487 compared with wildtype nAchRa7 receptor: way more sensitive
[1]; Ach up to 100 mM, compared with wildtype nAchRa7 receptor, listed as Y115D and L131Q in SEQ ID NO: 33
  sensitivity to acetylcholine, current generated: essentially insensitive; also recorded: almost no current could be generated
[2]; Baseline, no ligand
  Rheobase Shift; Rat DRG Neurons, Baseline: 163 ± 28 pA
[2]; Facinicline/RG-3487 @ EC90
  Rheobase Shift; Rat DRG Neurons, Facinicline/RG-3487 @ EC90: 625 ± 35 pA
[2]; RG-3487 (SA-2) 3 μM, transduced rat DRG neurons
  effect on current injection evoked action potentials: reversibly inhibits
[2]; RG-3487 (SA-2) 3 μM, transduced rat DRG neurons, n=7
  increase in the current required to elicit action potentials (rheobase): ~3 ×
[2]; acetylcholine 3.0 mM, transduced rat DRG neurons, n=4
  effect on evoked action potentials: no effect
[3]; ligand RG-3487
  fold increased potency towards RG-3487 compared with wild type receptor: over 10 fold
[3]; ligand acetylcholine
  fold reduced potency to acetylcholine compared with wild type receptor: over 500 fold
